Here are results for eight molecules from paper PMC5363963 (Biochemistry and Biophysics Reports, 2016).

The chains are these.
T1: synthetic amyloid fibrils composed of human islet amyloid polypeptide (human, UniProt P10997 34-70)
T1 peptide (looked up): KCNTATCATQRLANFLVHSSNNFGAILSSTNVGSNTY

Square brackets hold non-standard residues; d marks the D form. Ends that are not written are not given here.

The target of one test is synthetic amyloid fibrils composed of recombinant Vλ6 protein Wil. Put plainly: SPR.
As to GGGYSKAQKAPAKQAKQPQKAQKAPAKQAKQ [peptide p5(Pro3)], the equilibrium dissociation constant (Kd) is 25 nM.
Same read-out and setting: then GGGYSKAQKAQAKQAKQAQKAQKAQAKQAKQ [peptide p5], with 3.7 nM; and GGG[dY][dS][dK][dA][dQ][dK][dA][dQ][dA][dK][dQ][dA][dK][dQ][dA][dQ][dK][dA][dQ][dK][dA][dQ][dA][dK][dQ][dA][dK][dQ] [peptide p5(D)], with 5.4 nM; and VYKVKTKVKTKVKTKVKT [peptide p5(sheet)], with 10 nM.
On the same count and under the same terms, then GGGYSKGGKGGGKGGKGGGKGGKGGGKGGKG [peptide p5(coil)], with 18 nM.

The target is the same in a further test. In words: SPR. This is another data set of the same source.
GGGYSKAQKAPAKQAKQPQKAQKAPAKQAKQ [peptide p5(Pro3)]: the Kd amounted to 71 nM; the ka1 (two-state model, first step) was determined as 120000 M⁻¹ s⁻¹; the ka2 (two-state model, second step) came to 0.0122 s⁻¹; the kd1 (two-state model, first step) came to 0.045 s⁻¹. In addition, the kd2 (two-state model, second step) was found to be 0.0024 s⁻¹.
On the same counts, the results for GGGYSKAQKAQAKQAKQAQKAQKAQAKQAKQ [peptide p5] are 15 nM, 480000 M⁻¹ s⁻¹, 0.0315 s⁻¹, 0.203 s⁻¹ and 0.0011 s⁻¹.
In the same order, the values of GGG[dY][dS][dK][dA][dQ][dK][dA][dQ][dA][dK][dQ][dA][dK][dQ][dA][dQ][dK][dA][dQ][dK][dA][dQ][dA][dK][dQ][dA][dK][dQ] [peptide p5(D)] are 22 nM, 550000 M⁻¹ s⁻¹, 0.0074 s⁻¹, 0.052 s⁻¹ and 0.0017 s⁻¹.
On the same counts, the results for VYKVKTKVKTKVKTKVKT [peptide p5(sheet)] are 25 nM, 420000 M⁻¹ s⁻¹, 0.007 s⁻¹, 0.026 s⁻¹ and 0.0028 s⁻¹.
Turning to GGGYSKGGKGGGKGGKGGGKGGKGGGKGGKG [peptide p5(coil)], the Kd was 34 nM; the ka1 (two-state model, first step) amounted to 75000 M⁻¹ s⁻¹; the ka2 (two-state model, second step) is 7.9e-06 s⁻¹; the kd1 (two-state model, first step) turned out to be 0.001 s⁻¹. For the same molecule, the kd2 (two-state model, second step) is 1.5e-05 s⁻¹.

Another test has the same target. In words: pull-down.
As for GGGYSKAQKAQAKQAKQAQKAQKAQAKQAKQ [peptide p5], the percent inhibition of the binding of m6 (125I-p5) by a 1000-fold molar excess worked out at 95% and the percent inhibition of the binding of m7 (125I-p5(D)) by a 1000-fold molar excess was determined as 80%.
As for GGGYSKAQKAPAKQAKQPQKAQKAPAKQAKQ (also: radioiodinated with iodine-125, site not given here) [125I-labeled peptide p5(Pro3)], the ratio of 1 M/0.15 M pulldown data (bound peptide in 1 M NaCl over that in PBS) came to 0.01.
Turning to VYKVKTKVKTKVKTKVKT (also: radioiodinated with iodine-125, site not given here) [125I-labeled peptide p5(sheet)], the ratio of 1 M/0.15 M pulldown data (bound peptide in 1 M NaCl over that in PBS) was found to be 0.35.
As for GGGYSKGGKGGGKGGKGGGKGGKGGGKGGKG (also: radioiodinated with iodine-125, site not given here) [125I-labeled peptide p5(coil)], the ratio of 1 M/0.15 M pulldown data (bound peptide in 1 M NaCl over that in PBS) was 0.02.

A further test concerns the target synthetic amyloid fibrils composed of Aβ(1-40) peptide. Put plainly: pull-down.
Regarding GGGYSKAQKAPAKQAKQPQKAQKAPAKQAKQ (also: radioiodinated with iodine-125, site not given here) [125I-labeled peptide p5(Pro3)], the ratio of 1 M/0.15 M pulldown data (bound peptide in 1 M NaCl over that in PBS) stood at 0.01.
On the same count and under the same terms, the figure for VYKVKTKVKTKVKTKVKT (also: radioiodinated with iodine-125, site not given here) [125I-labeled peptide p5(sheet)] is 0.21.
As for GGGYSKGGKGGGKGGKGGGKGGKGGGKGGKG (also: radioiodinated with iodine-125, site not given here) [125I-labeled peptide p5(coil)], the ratio of 1 M/0.15 M pulldown data (bound peptide in 1 M NaCl over that in PBS) is 0.07.

Another test has as its target T1, synthetic amyloid fibrils composed of …. Put plainly: pull-down.
As to GGGYSKAQKAPAKQAKQPQKAQKAPAKQAKQ (also: radioiodinated with iodine-125, site not given here) [125I-labeled peptide p5(Pro3)], the “ratio of 1 M/0.15 M pulldown data (bound peptide in 1 M NaCl over that in PBS)” value amounted to 0.07.
The same measure, in the same setting: the figure for VYKVKTKVKTKVKTKVKT (also: radioiodinated with iodine-125, site not given here) [125I-labeled peptide p5(sheet)] is 0.2; for GGGYSKGGKGGGKGGKGGGKGGKGGGKGGKG (also: radioiodinated with iodine-125, site not given here) [125I-labeled peptide p5(coil)] it is 0.12.
